The target in this experiment is T1, human gastric inhibitory peptide receptor (hGIPR) (Homo sapiens, UniProt P48546).
T1 construct: expressed in transfected cells; host or cells: HEK293
T1 sequence (P48546 22-466): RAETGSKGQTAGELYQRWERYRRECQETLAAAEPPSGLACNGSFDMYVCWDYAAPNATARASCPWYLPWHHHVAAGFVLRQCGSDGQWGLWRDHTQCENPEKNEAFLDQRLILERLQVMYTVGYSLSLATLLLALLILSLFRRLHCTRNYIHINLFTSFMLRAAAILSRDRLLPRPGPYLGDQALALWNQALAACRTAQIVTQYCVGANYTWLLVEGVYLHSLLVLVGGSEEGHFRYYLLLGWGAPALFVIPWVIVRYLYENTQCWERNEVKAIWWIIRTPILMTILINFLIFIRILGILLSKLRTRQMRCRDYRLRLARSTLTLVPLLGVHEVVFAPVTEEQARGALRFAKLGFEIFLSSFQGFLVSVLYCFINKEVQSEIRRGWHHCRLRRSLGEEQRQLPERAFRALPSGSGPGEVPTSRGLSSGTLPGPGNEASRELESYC
In words: cAMP pharmacological functional assay in presence of 0.1% casein, hGIPR. The settings on record: ratio of hGIPR to hGLP1R cAMP EC50 ratios. It counts as cell-based.

Take “Y-Aib-EGT-αMeF(2F)-TSDLSI-αMeL-LD-Orn-K((2-[2-(2-Amino-ethoxy)-ethoxy]-acetyl)2-(γGlu)-CO—(CH2)16—CO2H)AQ-Aib-AFI-(D-Glu)-αMeY-LIEGGPSSGAPPPS-NH2 (YXEGTXTSDLSIXLDXKAQXAFIXXLIEGGPSSGAPPPS; Aib, Orn, αMe residues, lipidated Lys, D-Glu, amide; (2)..(2) Xaa at position 2 is Aib; (6)..(6) Xaa at position 6 is alpha-methyl-Phe(2F); (13)..(13) Xaa at position 13 is alpha-methyl-Leu; (16)..(16) Xaa at position 16 is Orn; MOD_RES (17)..(17) Lys at position 17 is chemically modified by conjugation of the epsilon-amino group of the Lys side chain with (2-[2-(2-amino-ethoxy)-ethoxy]-acetyl)2-(gamma-Glu)-CO-(CH2)16- CO2H; (20)..(20) Xaa at positi) [Peptide 244]”: the “[hGIPR/hGLP1R] EC50 Ratio” value was 6.41.
As to “Y-Aib-EGT-αMeF(2F)-TSDLSI-αMeL-LD-Orn-K((2-[2-(2-Amino-ethoxy)-ethoxy]-acetyl)2-(γGlu)-CO—(CH2)16—CO2H)AQ-Aib-EFI-(D-Glu)-αMeY-LIEGGPSSGAPPPS-NH2 (YXEGTXTSDLSIXLDXKAQXEFIXXLIEGGPSSGAPPPS; Aib, Orn, αMe residues, lipidated Lys, D-Glu, amide; (2)..(2) Xaa at position 2 is Aib; (6)..(6) Xaa at position 6 is alpha-methyl-Phe(2F); (13)..(13) Xaa at position 13 is alpha-methyl-Leu; (16)..(16) Xaa at position 16 is Orn; MOD_RES (17)..(17) Lys at position 17 is chemically modified by conjugation of the epsilon-amino group of the Lys side chain with (2-[2-(2-amino-ethoxy)-ethoxy]-acetyl)2-(gamma-Glu)-CO-(CH2)16- CO2H; (20)..(20) Xaa at positi) [Peptide 238]”, the “[hGIPR/hGLP1R] EC50 Ratio” value amounted to 6.37.
Under “Y-Aib-EGT-αMeF(2F)-TSDLSI-αMeL-LD-Orn-K((2-[2-(2-Amino-ethoxy)-ethoxy]-acetyl)2-(γGlu)-CO—(CH2)16—CO2H)AQ-Aib-TFI-(D-Glu)-αMeY-LIEGGPSSGAPPPS-NH2 (YXEGTXTSDLSIXLDXKAQXTFIXXLIEGGPSSGAPPPS; Aib, Orn, αMe residues, lipidated Lys, D-Glu, amide; (2)..(2) Xaa at position 2 is Aib; (6)..(6) Xaa at position 6 is alpha-methyl-Phe(2F); (13)..(13) Xaa at position 13 is alpha-methyl-Leu; (16)..(16) Xaa at position 16 is Orn; MOD_RES (17)..(17) Lys at position 17 is chemically modified by conjugation of the epsilon-amino group of the Lys side chain with (2-[2-(2-amino-ethoxy)-ethoxy]-acetyl)2-(gamma-Glu)-CO-(CH2)16- CO2H; (20)..(20) Xaa at positi) [Peptide 243]” stands 7.12.
Consider “Y-Aib-EGT-αMeF(2F)-TSDLSI-αMeL-LDEK((2-[2-(2-Amino-ethoxy)-ethoxy]-acetyl)2-(γGlu)-CO—(CH2)18—CO2H)AQ-Aib-EFI-(D-Glu)-YLIEGGPSSGAPPPS-NH2 (YXEGTXTSDLSIXLDEKAQXEFIXYLIEGGPSSGAPPPS; Aib, αMeF(2F), αMeL, D-Glu; lipidated K; amide; (2)..(2) Xaa at position 2 is Aib; (6)..(6) Xaa at position 6 is alpha-methyl-Phe(2F); (13)..(13) Xaa at position 13 is alpha-methyl-Leu; MOD_RES (17)..(17) Lys at position 17 is chemically modified by conjugation of the epsilon-amino group of the Lys side chain with (2-[2-(2-amino-ethoxy)-ethoxy]-acetyl)2-(gamma-Glu)-CO-(CH2)18- CO2H; (20)..(20) Xaa at position 20 is Aib; (24)..(24) Xaa at positi) [Peptide 183]”, for which the “[hGIPR/hGLP1R] EC50 Ratio” value is given as 3.68.
As for “Y-Aib-EGT-αMeF(2F)-TSDQSI-αMeL-LDEK((2-[2-(2-Amino-ethoxy)-ethoxy]-acetyl)2-(γGlu)-CO—(CH2)18—CO2H)AQ-Aib-EFI-(D-Glu)-YLIEGGPSSGAPPPS-NH2 (YXEGTXTSDQSIXLDEKAQXEFIXYLIEGGPSSGAPPPS; Aib, αMeF(2F), αMeL, D-Glu; lipidated K; amide; (2)..(2) Xaa at position 2 is Aib; (6)..(6) Xaa at position 6 is alpha-methyl-Phe(2F); (13)..(13) Xaa at position 13 is alpha-methyl-Leu; MOD_RES (17)..(17) Lys at position 17 is chemically modified by conjugation of the epsilon-amino group of the Lys side chain with (2-[2-(2-amino-ethoxy)-ethoxy]-acetyl)2-(gamma-Glu)-CO-(CH2)18- CO2H; (20)..(20) Xaa at position 20 is Aib; (24)..(24) Xaa at positi) [Peptide 187]”, the “[hGIPR/hGLP1R] EC50 Ratio” value was found to be 6.57.
Under “Y-Aib-EGT-αMeF(2F)-TSDVSI-αMeL-LD-Orn-K((2-[2-(2-Amino-ethoxy)-ethoxy]-acetyl)2-(γGlu)-CO—(CH2)16—CO2H)AQ-Aib-AFI-(D-Glu)-αMeY-LIEGGPSSGAPPPS-NH2 (YXEGTXTSDVSIXLDXKAQXAFIXXLIEGGPSSGAPPPS; Aib, Orn, αMe residues, lipidated Lys, D-Glu, amide; (2)..(2) Xaa at position 2 is Aib; (6)..(6) Xaa at position 6 is alpha-methyl-Phe(2F); (13)..(13) Xaa at position 13 is alpha-methyl-Leu; (16)..(16) Xaa at position 16 is Orn; MOD_RES (17)..(17) Lys at position 17 is chemically modified by conjugation of the epsilon-amino group of the Lys side chain with (2-[2-(2-amino-ethoxy)-ethoxy]-acetyl)2-(gamma-Glu)-CO-(CH2)16- CO2H; (20)..(20) Xaa at positi) [Peptide 242]” stands 2.85; under “Y-Aib-EGT-αMeF(2F)-TSDVSI-αMeL-LD-Orn-K((2-[2-(2-Amino-ethoxy)-ethoxy]-acetyl)2-(γGlu)-CO—(CH2)16—CO2H)AQ-Aib-TFI-(D-Glu)-αMeY-LIEGGPSSGAPPPS-NH2 (YXEGTXTSDVSIXLDXKAQXTFIXXLIEGGPSSGAPPPS; Aib, Orn, αMe residues, lipidated Lys, D-Glu, amide; (2)..(2) Xaa at position 2 is Aib; (6)..(6) Xaa at position 6 is alpha-methyl-Phe(2F); (13)..(13) Xaa at position 13 is alpha-methyl-Leu; (16)..(16) Xaa at position 16 is Orn; MOD_RES (17)..(17) Lys at position 17 is chemically modified by conjugation of the epsilon-amino group of the Lys side chain with (2-[2-(2-amino-ethoxy)-ethoxy]-acetyl)2-(gamma-Glu)-CO-(CH2)16- CO2H; (20)..(20) Xaa at positi) [Peptide 241]”, 3.77; under “Y-Aib-EGT-αMeF(2F)-TSDYSI-Aib-LD-Orn-K((2-[2-(2-Amino-ethoxy)-ethoxy]-acetyl)2-(Glu)-CO—(CH2)16—CO2H)AQ-Aib-EFI-(D-Glu)-YLIEGGPSSGAPPPS-NH2 (YXEGTXTSDYSIXLDXKAQXEFIXYLIEGGPSSGAPPPS; Aib, Orn, αMeF(2F), lipidated Lys, D-Glu, amide; (2)..(2) Xaa at position 2 is Aib; (6)..(6) Xaa at position 6 is alpha-methyl-Phe(2F); (13)..(13) Xaa at position 13 is Aib; (16)..(16) Xaa at position 16 is Orn; MOD_RES (17)..(17) Lys at position 17 is chemically modified by conjugation of the epsilon-amino group of the Lys side chain with (2-[2-(2-amino-ethoxy)-ethoxy]-acetyl)2-(gamma-Glu)-CO-(CH2)16- CO2H; (20)..(20) Xaa at position 20 is Aib;) [Peptide 247]”, 4.20.
With “Y-Aib-EGT-αMeF(2F)-TSDYSI-Aib-LD-Orn-K((2-[2-(2-Amino-ethoxy)-ethoxy]-acetyl)2-(γGlu)-CO—(CH2)18—CO2H)AQ-Aib-EFI-(D-Glu)-YLIEGGPSSGAPPPS-NH2 (YXEGTXTSDYSIXLDXKAQXEFIXYLIEGGPSSGAPPPS; Aib, Orn, αMeF(2F), lipidated Lys, D-Glu, amide; (2)..(2) Xaa at position 2 is Aib; (6)..(6) Xaa at position 6 is alpha-methyl-Phe(2F); (13)..(13) Xaa at position 13 is Aib; (16)..(16) Xaa at position 16 is Orn; MOD_RES (17)..(17) Lys at position 17 is chemically modified by conjugation of the epsilon-amino group of the Lys side chain with (2-[2-(2-amino-ethoxy)-ethoxy]-acetyl)2-(gamma-Glu)-CO-(CH2)18- CO2H; (20)..(20) Xaa at position 20 is Aib;) [Peptide 250]”, the “[hGIPR/hGLP1R] EC50 Ratio” value was 4.34.

For the origin of these results see patent US12295987B2, “Method of using a GIP/GLP1 co-agonist for diabetes” (Eli Lilly and Company, priority 2018, dated 2025).
